According to article PMC7126439:

What was measured:
GCN4-pA = test: AUC
GCN4-pV = test: AUC

## GCN4-pA (peptide)
GCN4-pA
  stoichiometry N: 4

## GCN4-pV (peptide)
GCN4-pV
  stoichiometry N: 4
